The source of these data is patent US8592178B2, “Process for the preparation of testosterone” (F.I.S. Fabbrica Italiana Sintetici S.p.A., priority 2009, dated 2013).

The nature of data set [1]: Solubility of 4-androstene-3,17-dione (saturated solution). The class given is physicochemical. On the procedure:
• 5 mg of 4-androstene-3,17-dione in • 5 mL of buffer solution (phosphate buffer 50 mM; pH 6.5). This was stirred at 40° C. for 15 minutes and the suspended matter was filtered thereby obtaining a saturated solution of 4-androstene-3,17-dione (conc. 50 μg/mL). Solution I (NAD Solution) • 10 mg of NAD in • 1 mL of buffer solution. A clear solution was obtained. Solution L ([…]) • 13 mg of GDH-103 (glucose dehydrogenase) in • 1 mL of buffer solution. A clear solution was obtained.
Advantageously, the enzyme of the present invention is capable of carrying out the catalysis also in water-organic solvent mixtures, such as methanol, ethanol, isopropanol in percentages as high as 50%. This mixtures allow increasing the substrate solubility, which is as low as about 50 μg/mL in water.

A short description of data set [2]: Activity test of the recombinant murine type V 17β-hydroxysteroid dehydrogenase enzyme (NADPH consumption at 340 nm). The note with it: for U/mg: each enzyme preparation; for U/mg / U/ml: preparation parameters (induction temp., time) differ per date of preparation; for U/ml: eluate of each enzyme preparation. The class given is biochemical. On the procedure:
To estimate the specific enzymatic activity of the purified protein, a kinetic study was carried out by means of a spectrophotometer. The conversion of 4-androstene-3,17-dione into testosterone by means of the recombinant murine type V 17β-hydroxysteroid dehydrogenase enzyme involved the equimolar consumption of the NADPH cofactor, which acted as the reducing agent.
As the transformation of the 4-androstene-3,17-dione into testosterone is equimolar to the oxidation of NADPH, by quantifying the consumption of the latter over time as a function of the enzyme milligrams used, the activity units can be estimated, which are intended as substrate micromoles converted per minute per protein milligram (U/mg).
A fresh saturated NADPH solution in phosphate buffer 100 mM at about pH 7 (SOLUTION Q) and a fresh saturated solution of 4-androstene-3,17-dione in phosphate buffer 100 mM at pH 7 (SOLUTION P) were prepared. In a quartz 100 μl cuvette, 1 cm optical path, 96 μl SOLUTION P, 4 μl phosphate buffer 100 mM at pH 7 were added. The blank was measured at 340 nm. The absorbance values at 340 nm were detected every second. In a quartz 100 μl cuvette 96 μl SOLUTION P, 2 μl SOLUTION Q and finally, 2 μl protein elution quantified by Bradford assay were inserted. The solution was blended thoroughly, then the wavelength reading was started at 340 nm and the values thereof were recorded. In a plot, the absorbance values were inserted, which were obtained as a function of time and the curve was interpolated. The highest derivate value within the early seconds of measurement was thus defined.
With the values obtained, the plot illustrated in FIG. 5 was drawn, which allows to quantify the NADPH consumption rate at time zero (except the self-oxidation given by the control, consisting of the mixture without enzyme, which must be subtracted) and from the latter the enzyme activity units per protein milligram (U/mg). To calculate the units, the following Formula was used: Unit/mg=|derivate (s^−1)|*60 (sec/min)*1 (cm)/6220 (M^−1Cm^−1)*1000000 (M/M)*[…]/[(mg/mL sol enzyme*0.002 (mL))]=(μmol/min)/mg
A study to optimize the process for the preparation of the purified recombinant murine enzyme Type V 17β-hydroxysteroid dehydrogenase was carried out. […] It can be seen that the highest activity of the enzyme is reached performing the incubation (protein expression) at a temperature lower than 30° C., particularly preferred is the range between 20° C. and 30° C. The incubation temperature is a key parameter for the preparation of the enzyme.

The nature of data set [3]: Stability study of the enzyme (activity as a function of time at room temperature). The class given is physicochemical. To be noted: in the elution solution (SOLUTION G) at room temperature. As for the experimental part: A study to verify the stability in water of the purified recombinant murine enzyme Type V 17β-hydroxysteroid dehydrogenase of the invention was carried out. […] It can be seen that the enzyme is sufficiently stable to allow industrial biocatalysis as it is still active even after 15 days (Half-life).

Values after ≈ are worked out from the molar mass of the structure shown. Values joined by “and” are separate entries in the source; they are usually repeats but may differ in a detail not shown here. Equal entries are not always repeated.

For orientation: solubility means how much of the substance goes into solution per volume. In data set [1] (in water), `C[C@]12CCC(=O)C=C1CC[C@@H]1[C@@H]2CC[C@]2(C)C(=O)CC[C@@H]12` [4-androstene-3,17-dione] came in with a solubility of roughly 50 µg/mL (≈ 175 µM). In addition, the “concentration of saturated solution” value in data set [1] (phosphate buffer 50 mM pH 6.5, stirred at 40° C. for 15 minutes, filtered) was found to be 50 µg/mL.

B1: 09/10/09: Preparation of the purified recombinant enzyme dated 09/10/09; induction 26 °C, 19 h (protein, UniProt P70694 1-323, looked up)
Estradiol 17 …: MDSKQQTVRLSDGHFIPILGFGTYAPQEVPKSKATEATKIAIDAGFRHIDSASMYQNEKEVGLAIRSKIADGTVKREDIFYTSKVWCTFHRPELVRVCLEQSLKQLQLDYVDLYLIHFPMAMKPGENYLPKDENGKLIYDAVDICDTWEAMEKCKDAGLAKSIGVSNFNRRQLEKILKKPGLKYKPVCNQVECHPYLNQGKLLDFCRSKDIVLVAYSALGSHREKQWVDQSSPVLLDNPVLGSMAKKYNRTPALIALRYQLQRGVVVLAKSFSEKRIKENMQVFEFQLTSEDMKVLDDLNKNIRYISGSSFKDHPDFPFWDEY
modifications: N-terminal His-tag
notes: Preparation of the purified recombinant enzyme dated 09/10/09; induction 26 °C, 19 h
As to B1, in data set [2], the U/mg is 0.0133 U/mg and the U/ml was 0.65 U/ml.

B2: 02/07/09: Preparation of the purified recombinant enzyme dated 02/07/09; induction 28 °C, 24 h (protein, UniProt P70694 1-323, looked up)
Estradiol 17 …: MDSKQQTVRLSDGHFIPILGFGTYAPQEVPKSKATEATKIAIDAGFRHIDSASMYQNEKEVGLAIRSKIADGTVKREDIFYTSKVWCTFHRPELVRVCLEQSLKQLQLDYVDLYLIHFPMAMKPGENYLPKDENGKLIYDAVDICDTWEAMEKCKDAGLAKSIGVSNFNRRQLEKILKKPGLKYKPVCNQVECHPYLNQGKLLDFCRSKDIVLVAYSALGSHREKQWVDQSSPVLLDNPVLGSMAKKYNRTPALIALRYQLQRGVVVLAKSFSEKRIKENMQVFEFQLTSEDMKVLDDLNKNIRYISGSSFKDHPDFPFWDEY
modifications: N-terminal His-tag
notes: Preparation of the purified recombinant enzyme dated 02/07/09; induction 28 °C, 24 h
On to B2, for which, in data set [2], the U/mg is given as 0.027 U/mg and the U/ml is on record as 0.29 U/ml.

B3: 26/09/08: Preparation of the purified recombinant enzyme dated 26/09/08; induction 37 °C, 18 h (protein, UniProt P70694 1-323, looked up)
Estradiol 17 …: MDSKQQTVRLSDGHFIPILGFGTYAPQEVPKSKATEATKIAIDAGFRHIDSASMYQNEKEVGLAIRSKIADGTVKREDIFYTSKVWCTFHRPELVRVCLEQSLKQLQLDYVDLYLIHFPMAMKPGENYLPKDENGKLIYDAVDICDTWEAMEKCKDAGLAKSIGVSNFNRRQLEKILKKPGLKYKPVCNQVECHPYLNQGKLLDFCRSKDIVLVAYSALGSHREKQWVDQSSPVLLDNPVLGSMAKKYNRTPALIALRYQLQRGVVVLAKSFSEKRIKENMQVFEFQLTSEDMKVLDDLNKNIRYISGSSFKDHPDFPFWDEY
modifications: N-terminal His-tag
notes: Preparation of the purified recombinant enzyme dated 26/09/08; induction 37 °C, 18 h
Take B3: in data set [2], the U/mg is on record as 0.00725 U/mg and the U/ml was 0.2247 U/ml.

B4: 25/03/09: Preparation of the purified recombinant enzyme dated 25/03/09; induction 37 °C, 15 h (protein, UniProt P70694 1-323, looked up)
Estradiol 17 …: MDSKQQTVRLSDGHFIPILGFGTYAPQEVPKSKATEATKIAIDAGFRHIDSASMYQNEKEVGLAIRSKIADGTVKREDIFYTSKVWCTFHRPELVRVCLEQSLKQLQLDYVDLYLIHFPMAMKPGENYLPKDENGKLIYDAVDICDTWEAMEKCKDAGLAKSIGVSNFNRRQLEKILKKPGLKYKPVCNQVECHPYLNQGKLLDFCRSKDIVLVAYSALGSHREKQWVDQSSPVLLDNPVLGSMAKKYNRTPALIALRYQLQRGVVVLAKSFSEKRIKENMQVFEFQLTSEDMKVLDDLNKNIRYISGSSFKDHPDFPFWDEY
modifications: N-terminal His-tag
notes: Preparation of the purified recombinant enzyme dated 25/03/09; induction 37 °C, 15 h
As to B4, in data set [2], the U/mg is on record as 0.0149 U/mg and the U/ml was 0.4955 U/ml.

B5: 22/04/09: Preparation of the purified recombinant enzyme dated 22/04/09; induction 37 °C, 21 h (protein, UniProt P70694 1-323, looked up)
Estradiol 17 …: MDSKQQTVRLSDGHFIPILGFGTYAPQEVPKSKATEATKIAIDAGFRHIDSASMYQNEKEVGLAIRSKIADGTVKREDIFYTSKVWCTFHRPELVRVCLEQSLKQLQLDYVDLYLIHFPMAMKPGENYLPKDENGKLIYDAVDICDTWEAMEKCKDAGLAKSIGVSNFNRRQLEKILKKPGLKYKPVCNQVECHPYLNQGKLLDFCRSKDIVLVAYSALGSHREKQWVDQSSPVLLDNPVLGSMAKKYNRTPALIALRYQLQRGVVVLAKSFSEKRIKENMQVFEFQLTSEDMKVLDDLNKNIRYISGSSFKDHPDFPFWDEY
modifications: N-terminal His-tag
notes: Preparation of the purified recombinant enzyme dated 22/04/09; induction 37 °C, 21 h
In the case of B5, in data set [2], the U/mg was determined as 0.0057 U/mg and the U/ml is on record as 0.1470 U/ml.

B6: 13/06/09: Preparation of the purified recombinant enzyme dated 13/06/09; induction 39 °C, 20 h (protein, UniProt P70694 1-323, looked up)
Estradiol 17 …: MDSKQQTVRLSDGHFIPILGFGTYAPQEVPKSKATEATKIAIDAGFRHIDSASMYQNEKEVGLAIRSKIADGTVKREDIFYTSKVWCTFHRPELVRVCLEQSLKQLQLDYVDLYLIHFPMAMKPGENYLPKDENGKLIYDAVDICDTWEAMEKCKDAGLAKSIGVSNFNRRQLEKILKKPGLKYKPVCNQVECHPYLNQGKLLDFCRSKDIVLVAYSALGSHREKQWVDQSSPVLLDNPVLGSMAKKYNRTPALIALRYQLQRGVVVLAKSFSEKRIKENMQVFEFQLTSEDMKVLDDLNKNIRYISGSSFKDHPDFPFWDEY
modifications: N-terminal His-tag
notes: Preparation of the purified recombinant enzyme dated 13/06/09; induction 39 °C, 20 h
Consider B6, for which, in data set [2], the U/mg was 0.00393 U/mg and the U/ml is on record as 0.0566 U/ml.

B7: recombinant murine type V 17β-hydroxysteroid dehydrogenase enzyme: Purified recombinant murine type V 17β-hydroxysteroid dehydrogenase with N-terminal His-tag tail, SEQ ID n. 2, expressed in E. coli (protein)
chain: MGSSHHHHHHSSGLVPRGSHMDSKQQTVRLSDGHFIPILGFGTYAPQEVPKSKATEATKIAIDAGFRHIDSASMYQNEKEVGLAIRSKIADGTVKREDIFYTSKVWCTFHRPELVRVCLEQSLKQLQLDYVDLYLIHFPMAMKPGENYLPKDENGKLIYDAVDICDTWEAMEKCKDAGLAKSIGVSNFNRRQLEKILKKPGLKYKPVCNQVECHPYLNQGKLLDFCRSKDIVLVAYSALGSHREKQWVDQSSPVLLDNPVLGSMAKKYNRTPALIALRYQLQRGVVVLAKSFSEKRIKENMQVFEFQLTSEDMKVLDDLNKNIRYISGSSFKDHPDFPFWDEY
modifications: N-terminal His-tag; modified 17-beta-deidrogenase
notes: 2, expressed in E. coli
Take B7: the “specific enzymatic activity (substrate micromoles converted per minute per protein milligram)” value in data set [2] (two different preparations, NADPH cofactor, phosphate buffer 100 mM pH 7) is 0.006 U/mg and 0.007 U/mg. For the same molecule, the half-life result in data set [3] is on record as “more than 15 days”.
